Measured values: PMC2873280, “Generation of anti-TLR2 intrabody mediating inhibition of macrophage surface TLR2 expression and TLR2-driven cell activation” (BMC Biotechnology, 2010)

Target: T1, N-terminally Flag-tagged human TLR2 (Homo sapiens, UniProt O60603)
T1 construct: Toll-like receptor 2, human; also called hTLR2; Toll-like receptor 2; source: HEK293, transiently transfected, in lysate; not shown: Flag, N-terminal, kept
Test: co-IP; HEK293 cells co-transfected with Flag-tagged human TLR2 and myc-tagged intrabody; lysed after 48 h (0.5% NP40, 150 mM NaCl); IP with myc-specific antibody and protein G beads, 4°C, 16 h, 5 washes; blot with tag-specific antibodies
Settings: partners not purified

T1 sequence (O60603 21-784): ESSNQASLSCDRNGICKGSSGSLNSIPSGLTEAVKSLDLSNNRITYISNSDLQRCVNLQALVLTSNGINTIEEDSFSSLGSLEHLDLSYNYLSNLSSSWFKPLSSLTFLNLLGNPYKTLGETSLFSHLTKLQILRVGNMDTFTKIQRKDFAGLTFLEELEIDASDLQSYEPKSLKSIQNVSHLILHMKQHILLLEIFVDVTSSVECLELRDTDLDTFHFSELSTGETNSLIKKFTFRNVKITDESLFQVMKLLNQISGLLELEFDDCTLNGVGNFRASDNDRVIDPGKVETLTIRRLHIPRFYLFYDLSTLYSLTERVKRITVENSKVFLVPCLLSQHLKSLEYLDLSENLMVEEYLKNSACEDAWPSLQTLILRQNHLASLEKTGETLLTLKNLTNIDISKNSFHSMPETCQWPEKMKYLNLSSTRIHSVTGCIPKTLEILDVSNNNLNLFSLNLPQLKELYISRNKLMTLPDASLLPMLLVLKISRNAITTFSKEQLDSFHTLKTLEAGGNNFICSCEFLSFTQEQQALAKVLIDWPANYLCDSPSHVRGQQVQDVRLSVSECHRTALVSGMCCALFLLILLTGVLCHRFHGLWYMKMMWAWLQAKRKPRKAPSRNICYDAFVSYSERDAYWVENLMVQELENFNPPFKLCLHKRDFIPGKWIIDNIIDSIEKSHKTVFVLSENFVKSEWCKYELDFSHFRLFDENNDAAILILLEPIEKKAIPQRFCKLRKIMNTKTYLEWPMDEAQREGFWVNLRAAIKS

binding result: binds
B1: anti-TLR2 scFv ER intrabody (αT2ib) (scFv, V domains shown)
VH: QVQLQQSGPELVNPGASVKLSCKASGFTFTTYGINWVKQGPGQGLEWIGWIYPRDGSTNFNENFKDKAALTVDTSSSTAYMELHSLTSEDSAVYFCARLTGGTFLDYWGQGTTVTVSS
VL: DIELTQSPASLAVSLGQRATISCRASESVEYYGTSLMQWYQQKPGQPPKLLIFGASNVESGVPVRFSGSGSGTDFSLNIHPVEEDDIVMYFCQQSRKLPWTFGGGTKLEIK
notes: VH of mouse mAb T2.5 (anti human/murine TLR2), amplified from hybridoma cDNA with consensus primers; synthetic 15 amino acid linker, printed as (Gly4Ser)3, between VH and VL; VL (kappa) of mouse mAb T2.5, amplified from hybridoma cDNA with consensus primers; Apparent size about 30 kDa; also called anti-TLR2 ER intrabody; TLR2 specific intrabody; source: HEK293, transiently transfected …
